This is an account of results in patent US20250171549A1 (Amgen, published 2025).

Where no end group is shown, it is not given here.

What is called Kd is the constant that tells how readily two partners part at equilibrium. Low readings indicate tighter binding, high ones weaker binding. For orientation: koff means the first-order rate constant of dissociation. What is called kon is the second-order rate constant of association.

Assay [1] addresses T1, human CCR8 (human, UniProt P51685 1-355). As to the kind of experiment: cell-based or functional assay.
Assay [2] concerns the target T2, huCCR8 (1-12)-Nb (human, not fully specified (C-terminus); also: fused to nanobody, biotinylated in Fab assay).
T2 construct: Expressed in human cells; also called CCR8 peptide-Nb fusion; not shown: nanobody (Nb) fusion partner, any linker or tag to it, and the biotin site
T2 peptide: MDYTLDLSVTTV
The assay is described as follows: BLI (Octet), mAb on anti-huIgG Fc sensor, peptide-Nb in solution. The protocol:
(§1) Binding affinities (KD equilibrium dissociation constant) and rate constants (kₐ association rate constant, kd dissociation rate constant) of an Antibody 1 Fab and CCR8-binding monoclonal antibodies (mAbs) of the present invention to a CCR8 1-12 epitope (SEQ ID NO: 82)-nanobody (Nb) fusion protein were measured using an OCTET® Biolayer Interferometry system (Sartorius AG, Göttingen, Germany). The CCR8-nanobody fusion proteins were expressed in human cells. For Fab binding, biotinylated CCR8 peptide-Nb fusions were captured on streptavidin SAX biosensors to loading levels between 2 and 4 nm and then incubated with a dilution series of the soluble Fab (top 100 nM, 6-point, 1:3 serial dilution) for 300 seconds followed by 500 seconds in buffer for dissociation. For mAb binding, mAbs were captured on an anti-huIgG Fc capture biosensor to 1 to 2 nm loading level and then incubated with a dilution series of non-biotinylated CCR8 peptide-Nb fusions (top 100 nM, 6-point, 1:3 serial dilution) for 300 seconds followed by 500 seconds in buffer for dissociation.
(§2) The OCTET® system acquires data over time (seconds) using a mechanism called Biolayer Interferometry; as proteins bind to biosensor tips, a sensitive binding signal in nm is measured by the instrument. All fiber optic tips were used once and then discarded, i.e., no regeneration. OCTET® buffer baselines, dissociation steps, and protein dilutions were made with OCTET® buffer (10 mM TRIS pH 7.5, 150 mM NaCl, 1 mM CaCl₂), 0.13% (v/v) Triton X-100 and 0.10 mg/mL BSA).
(§3) Raw data was processed with GeneData Screener v18 SPR package which uses the same data processing as the OCTET® instrument Data Analysis software (subtract average of two reference wells per column; Align Y-axis to baseline; Interstep correction align to dissociation; and Savitzky-Golay filtering). Each Fab or mAb interaction was grouped into its own sensorgram and globally fit with a 1:1 binding model to determine the association rate constant (kₐ; units M⁻¹ sec⁻¹) and the dissociation rate constant (kd; units sec⁻¹).
(Biolayer interferometry detects binding as a change in optical thickness at a sensor tip.)

Assay [3] deals with T3, huCCR8 (1-25)[C25S]-Nb (human, not fully specified; biotinylated for the Fab assay, non-biotinylated for the mAb assay ; biotinylated when captured on streptavidin sensors (Fab assay); non-biotinylated in the mAb assay).
T3 construct: Expressed in human cells; also called CCR8 peptide-Nb fusion; not shown: nanobody (Nb) fusion partner, any linker or tag to it, and the biotin site
T3 peptide: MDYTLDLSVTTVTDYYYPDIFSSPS
Described as above.

Assay [4] concerns the target T1, human CCR8. The assay is described as follows: cell-based or functional assay. The source holds these as a separate data set.
Assay [5] has as its target T2, huCCR8 (1-12)-Nb. The assay is described as follows: BLI (Octet), biotinylated peptide-Nb on streptavidin sensor, Fab in solution. The protocol: as §1, §2, §3
The target in assay [6] is T3, huCCR8 (1-25)[C25S]-Nb. Described as above.

B1: huCCR8_44379 (VH: D61S, VL: N67Q_M99G_W109F_S111A)_huIgG1z (mAb) (antibody, V domains shown)
VH: QVQLVESGGGVVQPGRSLRLSCAASGFTFSNYGFHWVRQTPGKGLEWVAVISYSGSNRYYADSVKGRFTISRDNSKNTLYLQMNSLRGEDTALYYCARVYYGSGTYYKNRYYYGMDVWGQGTTVTVSS
VL: SYELTQPPSVSVALGQTARITCGGHNIGSKGVHWYQQKPGQAPVLVIYRQSNRPSGIPERFSGSNSGNTATLTISGTQAGDEADYYCQAFDAGTVVFGGGTQLTVLG
notes: Engineered from scFv MPK20299-A4; afucosylated IgG1, HC without C-terminal lysine
B1: the “ADCC, Percent Non-Viable cells (EC50 pM), Donor 7” value with human CCR8 [1] is 0.28 pM. In addition, in the assay with huCCR8 (1-12)-Nb [2], the affinity, expressed as Kd, was 8.1 nM; the koff is 0.00107 s⁻¹; the kon is 132000 M⁻¹ s⁻¹. In the assay with huCCR8 (1-25)[C25S]-Nb [3], this molecule came in with a Kd of 7.2 nM, a koff of 0.000798 s⁻¹ and a kon of 110000 M⁻¹ s⁻¹.

B2: huCCR8_44379 (VH: D61A_D72A, VL: N67Q_M99E_W109F_S111A)_huIgG1z (mAb) (antibody, V domains shown)
VH: QVQLVESGGGVVQPGRSLRLSCAASGFTFSNYGFHWVRQTPGKGLEWVAVISYAGSNRYYAASVKGRFTISRDNSKNTLYLQMNSLRGEDTALYYCARVYYGSGTYYKNRYYYGMDVWGQGTTVTVSS
VL: SYELTQPPSVSVALGQTARITCGGHNIGSKGVHWYQQKPGQAPVLVIYRQSNRPSGIPERFSGSNSGNTATLTISGTQAEDEADYYCQAFDAGTVVFGGGTQLTVLG
notes: as for B1
B2: the “ADCC, Percent Non-Viable cells (EC50 pM), Donor 7” value in the assay with human CCR8 [1] stood at 0.52 pM. In the assay with huCCR8 (1-12)-Nb [2], the affinity, expressed as Kd, was 9.5 nM; the koff turned out to be 0.00134 s⁻¹; the kon came out at 142000 M⁻¹ s⁻¹. In the assay with huCCR8 (1-25)[C25S]-Nb [3], this molecule registered a Kd of 7.8 nM, a koff of 0.00114 s⁻¹ and a kon of 146000 M⁻¹ s⁻¹.

B3: huCCR8_44379 (VH: D72S, VL: N67A_S68A_M99G_W109F_S111A)_huIgG1z (mAb) (antibody, V domains shown)
VH: QVQLVESGGGVVQPGRSLRLSCAASGFTFSNYGFHWVRQTPGKGLEWVAVISYDGSNRYYASSVKGRFTISRDNSKNTLYLQMNSLRGEDTALYYCARVYYGSGTYYKNRYYYGMDVWGQGTTVTVSS
VL: SYELTQPPSVSVALGQTARITCGGHNIGSKGVHWYQQKPGQAPVLVIYRAANRPSGIPERFSGSNSGNTATLTISGTQAGDEADYYCQAFDAGTVVFGGGTQLTVLG
notes: as for B1
For the molecule B3, the “ADCC, Percent Non-Viable cells (EC50 pM), Donor 7” value in the assay with human CCR8 [1] turned out to be 0.48 pM. In the assay with huCCR8 (1-12)-Nb [2], this molecule came in with a Kd of 9 nM, a koff of 0.0011 s⁻¹ and a kon of 122000 M⁻¹ s⁻¹. In the assay with huCCR8 (1-25)[C25S]-Nb [3], this molecule had a Kd of 9.8 nM, a koff of 0.000975 s⁻¹ and a kon of 99300 M⁻¹ s⁻¹.

B4: huCCR8(32360LC:K38R)_huIgG1z(mAb) (antibody, V domains shown)
VH: EVQLVESGGGLVKPGGSLRLSCAASGFTFSNARMGWVRQAPGKGLEWVGRIKSKTEGGTRDYAAPVKGRFTISRDDSKNTLYLQMNSLKTEDTAVYYCTSYSGVWGQGTMVTVSS
VL: not shown
notes: Afucosylated IgG1, HC without C-terminal lysine
On to B4, for which, in the assay with human CCR8 [4], the “ADCC, Percent Non-Viable cells (EC50 pM), Donor 8” value worked out at 3 pM and the “ADCC, Percent Non-Viable cells (EC50 pM), Donor 9” value is 2.7 pM. Moreover, in the assay with huCCR8 (1-12)-Nb [2], binding was put at a Kd of 60.6 nM, the koff is 0.024 s⁻¹ and the kon was found to be 397000 M⁻¹ s⁻¹.

B5: Fab (HCVR SEQ ID NO: 13; LCVR SEQ ID NO: 14) (Fab, V domains shown)
VH: EVQLVESGGGLVKPGGSLRLSCAASGFTFSNARMGWVRQAPGKGLEWVGRIKSKTEGGTRDYAAPVKGRFTISRDDSKNTLYLQMNSLKTEDTAVYYCTSYSGVWGQGTMVTVSS
VL: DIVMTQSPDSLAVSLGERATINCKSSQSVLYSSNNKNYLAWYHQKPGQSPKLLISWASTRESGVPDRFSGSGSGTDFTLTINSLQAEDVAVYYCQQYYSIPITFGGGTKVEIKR
notes: also called Antibody 1 Fab
With B5, in the assay with huCCR8 (1-12)-Nb [5], the dissociation constant Kd was found to be 22.6 nM, the koff is 0.0132 s⁻¹ and the kon was found to be 584000 M⁻¹ s⁻¹. In the assay with huCCR8 (1-25)[C25S]-Nb [6], this molecule gave a Kd of 17.4 nM, a koff of 0.0106 s⁻¹ and a kon of 606000 M⁻¹ s⁻¹.
